According to US20180305450A1 (AstraZeneca / MedImmune, published 2018):
Where a chain is given by its changes, count along the chain named. In names and notes the source's numbering stands. Each block holds one binder with its values, some of them ahead of it.

Key:
[1] = biological target: T1, recombinant biotinylated human PAR2 extracellular domain (residues 1-75), N-terminal AviTag, C-terminal Flag … (human, UniProt P55085 26-75, biotin on the AviTag (enzymatic biotinylation)); test: Biacore SPR 25 C, pH 6.0
T1 construct: also called Bio-human-PAR2 ECD; human PAR2 ECD; not shown: N-terminal AviTag (Avidity LLC); C-terminal Flag and poly Histidine tags
Procedure: (§1) The experiments were carried out using recombinant human, rat and cynomolgus PAR2 with an N-terminal Avi tag and C-terminal Flag-His tags.
(§2) Streptavidin was covalently immobilised to a C1 chip surface using standard amine coupling techniques at a concentration of 4 μg/ml in 10 mM Sodium acetate pH 4.5. A final streptavidin surface of approximately 30-100 RUs was achieved. Recombinant biotinylated PAR2 species (produced in-house) were titrated onto the streptavidin chip surface at 4 μg/ml in HBS-EP+ buffer to enable Fab binding at saturation (Rₘₐₓ). This low level of analyte binding ensured minimal mass transport effects.
(§3) The anti-PAR2 Fabs were serially diluted (0.39 nM-25 nM) in HBS-EP+ buffer pH 7.4 or MES-BS-EP+ pH 6.0 buffer or in MES-BS-EP+ pH 5.6 buffer and flowed over the chip at 50 μl/min, with 3 minutes association and up to 30 minutes dissociation. Multiple buffer-only injections were made under the same conditions to allow for double reference subtraction of the final sensorgram sets, which were analysed using the BiaEval software (version 2.0.1). The chip surface was fully regenerated with pulses of 4 M MgCl₂.

[2] = biological target: T2, recombinant biotinylated rat PAR2 extracellular residues 1-75, N-terminal AviTag, C-terminal Flag and poly … (rat, UniProt Q63645 26-75, not fully specified; biotin on the AviTag (enzymatic biotinylation)); test: Biacore SPR 25 C, pH 6.0
T2 construct: range 1-75; not shown: N-terminal AviTag (Avidity LLC); C-terminal Flag and poly Histidine tags
T2 chain (looked up): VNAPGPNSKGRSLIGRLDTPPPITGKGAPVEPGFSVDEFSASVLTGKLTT
Procedure: as §1, §2, §3

[3] = biological target: T1, recombinant biotinylated human PAR2 …; test: Biacore SPR 25 C, pH 7.4
Procedure: as §1, §2, §3

[4] = biological target: T2, recombinant biotinylated rat PAR2 …; test: Biacore SPR 25 C, pH 7.4
Procedure: as §1, §2, §3

[5] = biological target: T1, recombinant biotinylated human PAR2 …; test: HTRF competition with Dylight650-Par0067 IgG, IgG
Procedure: (§4) Parent Par0067 IgG (used as a reference/control in all assays) was pre-diluted to give a 2000 nM stock in each of the two different pH assay buffers (in order to give a top final assay IgG concentration of 500 nM). All test, or other reference/control IgG were tested from a top final assay concentration of ¼ of the neat undiluted sample (i.e. no pre-dilution step was performed). Duplicate 11 point 1:3 serial dilutions then were prepared on 384 well polypropylene Greiner plates in each of the two assay buffers (pH 7.4 & 6.0). 5 μl per well was transferred from the relevant pH IgG dilution plate to the corresponding assay plate (pH 7.4 and pH 6.0). 5 ul of the appropriate pH assay buffer was added to the total and non-specific wells.
(§5) For multipoint dose response curves % Specific Binding values were plotted versus test purified antibody concentration (scFv or IgG). IC₅₀ values were determined via a sigmoidal dose response inhibition variable slope curve fit (4 parameter logistic equation) using Graphpad Prism Software.

[6] = biological target: T1, recombinant biotinylated human PAR2 …; test: HTRF competition with Dylight650-Par0067 IgG, pH 6.0, IgG
Procedure: as §4, §5

[7] = biological target: T1, recombinant biotinylated human PAR2 …; test: HTRF competition with Dylight650-Par0067 IgG, pH 7.4, IgG
Procedure: as §4, §5

T1 sequence (P55085 26-75): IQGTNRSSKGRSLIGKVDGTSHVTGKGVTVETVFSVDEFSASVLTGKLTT

B1: PaB670120 Fab (Fab, V domains shown)
VH: EVQLLESGGGLVQPGGSLRLSCAASGFTFSSYAMNWVRQAPGKGLEWVSTISYHGHHISYADSHHHRFTISRDNSKNTLYLQMNSLRAEDTAVYYCARINHDPMDVWGQGTLVTVSS
VL: SIELTQPPSVSVSPGQTASITCSGDNLGKKYVQWYQQKPGQSPVLVIYDDSNRPSGIPERFSGSNSGNTATLTISGTQAMDEADYYCQTWDGNPTTGETNVFGGGTKLTVL
notes: Fab; also called ZZ1RUC-C11
Kd [1]: 6.05 nM
koff [1]: 0.021 s⁻¹
kon [1]: 3.48e+06 M⁻¹ s⁻¹
Kd [2]: 34 nM
koff [2]: 0.281 s⁻¹
kon [2]: 8.26e+06 M⁻¹ s⁻¹
Kd [3]: 0.247 nM
koff [3]: 0.00137 s⁻¹
kon [3]: 5.54e+06 M⁻¹ s⁻¹
Kd [4]: 2.61 nM
koff [4]: 0.0146 s⁻¹
kon [4]: 5.62e+06 M⁻¹ s⁻¹

B4: PaB670148 IgG (antibody, V domains shown)
VH: B1 VH with H101N
VL: B1 VL with Q88H, D91H, G92H, N93H, T96H, T99H
notes: IgG1-TM (L234F, L235E, P331S), human lambda light chain
Fold IC50 (pH 6.0 v pH 7.4) [5]: 17.4 fold
Fold IC50 pH 7.4 (Variant v Par0067) [5]: 58.1 fold
IC50 [6]: 845 nM
IC50 [7]: 48.5 nM

B6: PaB670159 IgG (antibody, V domains shown)
VH: B1 VH
VL: B1 VL with N93H, P94H, T95H, V101H
notes: as for B4
Fold IC50 pH 7.4 (Variant v Par0067) [5]: 193 fold
IC50 [7]: 161 nM

B9: PaB670084 Fab (Fab, V domains shown)
VH: B1 VH with Y53H, H54S, H57L, S59H, Y60H, H65K, H66G, H101N
VL: B1 VL
notes: Fab; also called ZZ1PXA-A05
Kd [1]: 4.41 nM
koff [1]: 0.00763 s⁻¹
kon [1]: 1.73e+06 M⁻¹ s⁻¹
Kd [2]: 10.8 nM
koff [2]: 0.0277 s⁻¹
kon [2]: 2.57e+06 M⁻¹ s⁻¹
Kd [3]: 0.25 nM
koff [3]: 0.00162 s⁻¹
kon [3]: 6.49e+06 M⁻¹ s⁻¹
Kd [4]: 1.23 nM
koff [4]: 0.00837 s⁻¹
kon [4]: 6.83e+06 M⁻¹ s⁻¹

B10: PaB670076 Fab (Fab, V domains shown)
VH: B1 VH with H54S, H56S, H57L, H64V, H65K, H66G, H101N
VL: B1 VL with Q88H, G92H, N93H, P94H, T99H
notes: Fab; also called ZZ1NHH-F09
Kd [1]: 4.61 nM
koff [1]: 0.00514 s⁻¹
kon [1]: 1.11e+06 M⁻¹ s⁻¹
Kd [2]: 30.7 nM
koff [2]: 0.051 s⁻¹
kon [2]: 1.66e+06 M⁻¹ s⁻¹
Kd [3]: 0.207 nM
koff [3]: 0.00121 s⁻¹
kon [3]: 5.84e+06 M⁻¹ s⁻¹
Kd [4]: 1.69 nM
koff [4]: 0.0107 s⁻¹
kon [4]: 6.34e+06 M⁻¹ s⁻¹

Continued by falling IC50 [7], values first:

Fold IC50 pH 7.4 (Variant v Par0067) [5]: 39.3 fold
IC50 [7]: 32.8 nM
B5: PaB670128 IgG (antibody, V domains shown)
VH: B1 VH with N100H
VL: B1 VL
notes: IgG1-TM (L234F, L235E, P331S), human lambda light chain; also called ZZ1RUE-A01

Fold IC50 (pH 6.0 v pH 7.4) [5]: 19.5 fold
Fold IC50 pH 7.4 (Variant v Par0067) [5]: 34.7 fold
IC50 [6]: 565 nM
IC50 [7]: 29 nM
B3: PaB670144 IgG (antibody, V domains shown)
VH: B1 VH
VL: B1 VL with T96H
notes: as for B4

Fold IC50 (pH 6.0 v pH 7.4) [5]: 6.3 fold
Fold IC50 pH 7.4 (Variant v Par0067) [5]: 12.3 fold
IC50 [6]: 64.6 nM
IC50 [7]: 10.3 nM
B2: PaB670084 IgG (antibody, V domains shown)
VH: B1 VH with Y53H, H54S, H57L, S59H, Y60H, H65K, H66G, H101N
VL: B1 VL
notes: IgG1-TM (L234F, L235E, P331S), human lambda light chain; also called ZZ1PXA-A05

Fold IC50 (pH 6.0 v pH 7.4) [5]: 11.8 fold
Fold IC50 pH 7.4 (Variant v Par0067) [5]: 4 fold
IC50 [6]: 40 nM
IC50 [7]: 3.4 nM
B7: PaB670143 IgG (antibody, V domains shown)
VH: B1 VH with H101N
VL: B1 VL with T96H
notes: as for B4

Fold IC50 (pH 6.0 v pH 7.4) [5]: 8.9 fold
Fold IC50 pH 7.4 (Variant v Par0067) [5]: 3.5 fold
IC50 [6]: 25.8 nM
IC50 [7]: 2.9 nM
B8: PaB670045 IgG (antibody, V domains shown)
VH: B1 VH with H54S, H56S, H57L, H64V, H65K, H66G, N100H
VL: B1 VL
notes: IgG1-TM (L234F, L235E, P331S), human lambda light chain; also called ZZ1KX3-F01
